Measured values: paper PMC6389977, “Dengue virus nonstructural 3 protein interacts directly with human glyceraldehyde-3-phosphate dehydrogenase (GAPDH) and reduces its glycolytic activity” (Scientific Reports, 2019)

B1: DENV2 NS1 protein (natural protein)
chain: DSGCVVSWKNKELKCGSGIFITDNVHTWTEQYKFQPESPSKLASAIQKAHEEGICGIRSVTRLENLMWKQITPELNHILSENEVKLTIMTGDIKGIMQAGKRSLQPQPTELKYSWKTWGKAKMLSTESHNQTFLIDGPETAECPNTNRAWNSLEVEDYGFGVFTTNIWLKLREKQDVFCDSKLMSAAIKDNRAVHADMGYWIESALNDTWKIEKASFIEVKSCHWPKSHTLWSNGVLESEMIIPKNFAGPVSQHNYRPGYHTQTAGPWHLGKLEMDFDFCEGTTVVVTEDCGNRGPSLRTTTASGKLITEWCCRSCTLPPLRYRGEDGCWYGMEIRPLKEKEENLVNSLVTA
B2: purified recombinant human GAPDH protein (enzyme)
chain: not shown
notes: also called glyceraldehyde-3-phosphate dehydrogenase

Columns and labels:
[1] = molecular target: B2; experiment: SPR; unpublished data; no conditions told; the estimate is given together with the ELISA result of ref. 39
[2] = molecular target: T1, recombinant full-length DENV2 NS3 protein (dengue virus 2, New Guinea C (NGC) …, UniProt P14340 1476-2093); experiment: SPR; settings: both partners purified
T1 construct: also called full-length NS3
T1 sequence (P14340 1476-2093): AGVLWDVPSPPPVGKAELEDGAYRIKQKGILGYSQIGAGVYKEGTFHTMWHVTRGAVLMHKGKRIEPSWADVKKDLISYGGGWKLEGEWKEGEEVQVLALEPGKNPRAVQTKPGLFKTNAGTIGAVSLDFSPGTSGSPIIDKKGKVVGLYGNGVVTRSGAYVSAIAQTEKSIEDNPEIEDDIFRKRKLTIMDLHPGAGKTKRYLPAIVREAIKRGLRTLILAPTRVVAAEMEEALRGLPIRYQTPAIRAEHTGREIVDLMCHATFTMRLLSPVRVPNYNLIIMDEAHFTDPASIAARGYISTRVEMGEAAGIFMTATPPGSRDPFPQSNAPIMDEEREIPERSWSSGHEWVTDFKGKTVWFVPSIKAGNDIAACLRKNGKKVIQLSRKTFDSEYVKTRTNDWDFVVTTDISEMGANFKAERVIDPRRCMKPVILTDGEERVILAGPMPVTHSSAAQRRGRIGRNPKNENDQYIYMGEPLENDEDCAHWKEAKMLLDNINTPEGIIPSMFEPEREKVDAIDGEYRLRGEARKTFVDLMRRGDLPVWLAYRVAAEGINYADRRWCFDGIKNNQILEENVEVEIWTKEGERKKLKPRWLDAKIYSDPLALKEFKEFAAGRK

Binder | Kd [1] | Kd [2]
B1 | 2000 to 3000 nM | 
B2 |  | 310 nM
